Reference: patent US20250282890A1

Columns and labels:
[1] = target: human PSMA displayed on the surface of LNCaP cells (human) (UniProt Q04609); test: flow cytometry titration on cells (three-fold dilution series, anti-Strep antibody and goat anti-mouse Alexa Fluor 647); the sheet does not name the cell line, the text gives the curves as binding to cell-surface PSMA (LNCaP)
[2] = target: human PSMA displayed on the surface of LNCaP cells (human) (UniProt Q04609); test: flow cytometry on LNCaP cells, Fab titrated
[3] = target: recombinant human PSMA (prostate-specific membrane antigen), biotin-tagged (human) (UniProt Q04609); test: native ELISA, streptavidin-captured biotin-tagged PSMA, Fab titrated
[4] = target: recombinant human PSMA (prostate-specific membrane antigen), biotin-tagged (human) (UniProt Q04609); test: ELISA on plates coated with recombinant PSMA (biotin-tagged, captured on streptavidin), two-fold dilution series, goat anti-human-HRP and TMB
[5] = target: human PSMA displayed on the surface of LNCaP cells (human) (UniProt Q04609); test: flow cytometry on LNCaP cells, IgG1 titrated
[6] = target: recombinant human PSMA (prostate-specific membrane antigen), biotin-tagged (human) (UniProt Q04609); test: ELISA on plates coated with recombinant PSMA, two-fold dilution series, goat anti-human-HRP and TMB
[7] = target: recombinant human PSMA (prostate-specific membrane antigen), biotin-tagged (human) (UniProt Q04609); test: native ELISA, streptavidin-captured biotin-tagged PSMA, IgG1 titrated

Sequence of human PSMA displayed on the surface of LNCaP cells (human) (Q04609 whole entry): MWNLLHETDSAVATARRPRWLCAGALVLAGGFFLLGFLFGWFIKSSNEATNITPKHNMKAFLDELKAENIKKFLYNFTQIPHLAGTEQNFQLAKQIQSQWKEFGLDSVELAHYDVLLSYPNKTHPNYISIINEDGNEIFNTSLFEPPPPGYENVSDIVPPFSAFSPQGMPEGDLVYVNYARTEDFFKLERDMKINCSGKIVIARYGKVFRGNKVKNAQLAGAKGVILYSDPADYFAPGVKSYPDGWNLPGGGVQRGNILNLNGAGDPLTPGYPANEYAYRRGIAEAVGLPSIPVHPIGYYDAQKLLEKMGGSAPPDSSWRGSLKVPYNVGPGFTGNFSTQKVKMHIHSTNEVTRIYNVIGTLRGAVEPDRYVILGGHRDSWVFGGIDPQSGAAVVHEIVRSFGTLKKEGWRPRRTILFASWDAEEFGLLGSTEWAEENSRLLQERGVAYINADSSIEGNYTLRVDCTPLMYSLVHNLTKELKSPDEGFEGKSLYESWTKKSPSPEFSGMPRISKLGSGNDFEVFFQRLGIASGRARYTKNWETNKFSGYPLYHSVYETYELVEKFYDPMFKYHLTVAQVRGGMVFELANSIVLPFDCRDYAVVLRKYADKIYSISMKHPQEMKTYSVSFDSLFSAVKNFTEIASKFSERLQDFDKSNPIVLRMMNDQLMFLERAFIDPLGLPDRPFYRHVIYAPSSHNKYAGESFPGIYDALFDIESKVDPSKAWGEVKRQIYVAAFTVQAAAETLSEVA
Sequence of recombinant human PSMA (prostate-specific membrane antigen), biotin-tagged (human) (Q04609 44-750 limits assumed): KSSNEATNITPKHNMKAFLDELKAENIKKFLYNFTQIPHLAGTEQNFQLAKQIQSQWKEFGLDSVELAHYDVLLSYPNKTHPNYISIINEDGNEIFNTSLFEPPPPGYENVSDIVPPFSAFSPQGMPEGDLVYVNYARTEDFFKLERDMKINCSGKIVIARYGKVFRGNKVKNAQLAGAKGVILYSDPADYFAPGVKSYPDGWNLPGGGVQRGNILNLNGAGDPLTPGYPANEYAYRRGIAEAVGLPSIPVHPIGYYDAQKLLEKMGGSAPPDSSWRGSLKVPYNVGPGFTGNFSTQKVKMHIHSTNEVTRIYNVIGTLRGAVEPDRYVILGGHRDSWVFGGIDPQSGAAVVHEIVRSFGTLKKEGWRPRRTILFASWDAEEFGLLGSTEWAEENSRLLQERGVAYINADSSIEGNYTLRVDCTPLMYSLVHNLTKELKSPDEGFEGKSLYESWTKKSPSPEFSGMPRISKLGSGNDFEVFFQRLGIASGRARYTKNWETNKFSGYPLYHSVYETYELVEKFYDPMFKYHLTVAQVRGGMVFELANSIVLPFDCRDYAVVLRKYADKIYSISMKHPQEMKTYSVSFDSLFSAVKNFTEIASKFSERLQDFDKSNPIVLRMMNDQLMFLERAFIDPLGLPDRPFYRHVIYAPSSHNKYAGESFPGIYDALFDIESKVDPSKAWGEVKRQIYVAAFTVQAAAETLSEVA

Row | Substance | EC50 (read off the curve) [1] [nM] | Kd [2] [nM] | Kd [3] [nM] | EC50 (read off the curve) [4] [nM] | Kd [5] [nM] | EC50 (read off the curve) [6] [nM] | Kd [7] [nM]
1 | Chimeric Fab | 3 | 2.8 | 1.8 | 1 |  |  | 
2 | Chimeric 5D3 IgG1 (antibody) |  |  |  |  | 0.35 | 0.3 | 0.28
